These results are taken from US8053627B2, “Methods for treating demyelination disorders” (University of Chicago, priority 2005, dated 2011).

In test [1] the test system is Hippocampal organotypic cultures. Put plainly: Hippocampal organotypic cultures (HOC), in vitro model of myelination, MBP Western blot. It counts as cell-based. As to conditions: 7 days; for reduction of MBP expression elicited by IFN-γ exposure: SAL at various concentrations combined with 100 U/ml IFN-γ. The procedure:
HOCs, were prepared and maintained as described previously (Kunkler and Kraig (1997) J Cereb Blood Flow Metab. 17:2643), and were maintained in vitro for 7 days before use. SAL at various concentrations was combined with 100 U/ml IFN-γ and added to the HOC cultures for 7 days. […] After 7 days of 100 U/ml IFN-γ exposure, the levels of MBP decreased approximately 80% in the HOCs (FIG. 29).
(In general: A western blot detects proteins with antibodies after separation by electrophoresis.)

Test [2] concerns the target PP1-GADD34 phosphatase (Homo sapiens, UniProt O75807). Particulars: Boyce, et al. (2005); cited from earlier work.
Test [3] deals with cells. Particulars: Boyce, et al. (2005); cited from earlier work.
Test [4] deals with oligodendrocytes and myelin. Put plainly: IFN-γ-overexpressing mice crossed to PLP/SOCS1 mice, clinical and histological evaluation at postnatal day 21. It counts as in vivo. Particulars: for Incidence of tremor: ten mice per group; for oligodendrocyte density: corpus callosum, postnatal day 21. On the procedure:
IFN-γ-overexpressing mice were crossed to the PLP/SOCS1 mice in double-transgenic, (MBP/IFN-γ×PLP/SOCS1) and triple-transgenic (GFAP/tTA×TRE/IFN-γ×PLP/SOCS1) mating systems. MBP/IFN-γ×PLP/SOCS1 (172×PLP/SOCS1) mating was performed according to a standard mating protocol. The GFAP/tTA×TRE/IFN-γ×PLP/SOCS1 matings were performed in a 2-step mating process: GFAP/tTA mice were initially crossed to PLP/SOCS1 mice, and double-positive (184×PLP/SOCS1) offspring were then crossed to the TRE/IFN-γ lines 110 and 67, separately. This second mating step was performed according to the previously described “tet-off” protocol. Doxycycline 0.05 mg/ml (Sigma-Aldich) was added to the water of impregnated female mice until embryonic day 14, after which the animals were switched back to normal water, thereby allowing initiation of IFN-γ transcription, which peaks during the postnatal period (Lin et al., 2005).
The litters of the mating systems (F1 generation) were examined daily and sacrificed at postnatal day 21. Clinical evaluation included behavioral observation and challenged ladder walking to elicit tremor. Histological examination included quantitation of the number and density of oligodendrocytes and examination of the myelination patterns. Brain tissue was simultaneously obtained from each animal at the time of sacrifice to verify and measure the expression of IFN-γ and Flag-SOCS1 (see below). The clinical and histological findings were subsequently stratified according to genotype. All animal procedures were conducted in compliance with the National Institutes of Health Guide for Care and Use of Laboratory Animals and were approved by the Institutional Animal Care and Use Committee at The University of Chicago.
Oligodendrocyte cell density was assessed digitally using Axiovision software, at postnatal day 21, as previously described (Lin et al., 2005). The brains were sectioned sagittally through the corpus callosum dividing the brain in two symmetrical halves. Ten frozen sections from each half were prepared at 7 μm thickness, and numbered in the sequence of their preparation. The brains of three animals per study group were prepared in this fashion. Following the CC1 immunostaining the corresponding area of corpus callosum of each section was digitally selected and the corresponding total area obtained. CC1 cell counting was performed manually within the selected areas of each section, and the number of CC1 positive cells per square area (mm^2) calculated. The results were presented as mean±SD of CC1 (+) cells/mm^2 with n=3 animals per study group.
Myelination patterns of the examined animals were assessed at postnatal day 21 by calculating the percent unmyelinated axons and ratio of the axon/fiber diameters (G ratio) with Image J software (National Institutes of Health, Bethesda, Md.) as previously described (Lin at al., 2005). The brains were sectioned sagittally through the corpus callosum dividing the brain in two symmetrical halves. Approximately 2 mm^3 samples from the genu and the splenum of both halves of corpus callosum were obtained using a Wild M3C stereotype microscope. The orientation of the specimen in the resin blocks yielding axonal cross-sections (well seen myelin rings) was chosen, and established by toluedine blue staining of a few sample sections. The resin blocks with the chosen orientation were processed for electron microscope examination. Randomly selected areas were examined and ten representative pictures from both genu and splenum corpus callosum were obtained at 12000× magnification. The number of unmyelinated axons was assessed by manual counting of axons that lacked myelin and were encircled solely by their own plasma membrane. All unmyelinated axons present in the representative images were counted, and their percentage calculated by examining a total of five hundred axons per tissue sample. […]

Chain of PP1-GADD34 phosphatase (O75807 whole entry): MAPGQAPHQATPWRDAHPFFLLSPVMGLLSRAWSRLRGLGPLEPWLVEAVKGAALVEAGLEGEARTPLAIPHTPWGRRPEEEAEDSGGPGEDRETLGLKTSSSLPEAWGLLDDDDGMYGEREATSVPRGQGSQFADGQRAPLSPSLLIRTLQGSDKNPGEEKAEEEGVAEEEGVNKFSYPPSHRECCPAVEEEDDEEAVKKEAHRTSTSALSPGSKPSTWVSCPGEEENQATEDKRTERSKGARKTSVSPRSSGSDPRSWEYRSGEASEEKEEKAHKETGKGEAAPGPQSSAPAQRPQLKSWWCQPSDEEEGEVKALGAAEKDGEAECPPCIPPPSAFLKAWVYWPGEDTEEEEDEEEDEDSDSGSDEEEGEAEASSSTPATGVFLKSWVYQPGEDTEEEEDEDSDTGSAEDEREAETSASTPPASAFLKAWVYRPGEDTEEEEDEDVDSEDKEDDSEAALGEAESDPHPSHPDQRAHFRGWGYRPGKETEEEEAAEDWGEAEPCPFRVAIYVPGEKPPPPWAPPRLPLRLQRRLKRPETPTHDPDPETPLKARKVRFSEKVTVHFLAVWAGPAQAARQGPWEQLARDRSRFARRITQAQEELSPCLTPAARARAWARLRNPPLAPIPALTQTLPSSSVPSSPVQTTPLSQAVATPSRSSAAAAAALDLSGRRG

Turning to `O=C(/C=C/c1ccccc1)NC(NC(=S)Nc1cccc2cccnc12)C(Cl)(Cl)Cl` (centres unmarked) [SAL, salubrinal], the “reduction of MBP expression elicited by IFN-γ exposure” value in test [1] is “markedly attenuated”; in test [1] (listed as Sal), “attenuating effect”. In addition, in test [1] (SAL treatment alone), the MBP expression entry was “did not affect”. Besides, the PP1-GADD34 phosphatase activity entry in test [2] is “specifically inhibits”. Besides, in test [3], the “protection of cells from ER stress and viral infection” value was “protects cells from ER stress and viral infection”.

B1: SOCS1: suppressor of cytokine signaling 1, Flag-tagged, expressed in oligodendrocytes from the PLP/SOCS1 transgene (protein, UniProt O35716 1-212, looked up)
Suppressor of cytokine …: MVARNQVAADNAISPAAEPRRRSEPSSSSSSSSPAAPVRPRPCPAVPAPAPGDTHFRTFRSHSDYRRITRTSALLDACGFYWGPLSVHGAHERLRAEPVGTFLVRDSRQRNCFFALSVKMASGPTSIRVHFQAGRFHLDGSRETFDCLFELLEHYVAAPRRMLGAPLRQRRVRPLQELCRQRIVAAVGRENLARIPLNPVLRDYLSSFPFQI
modifications: FLAG tag
notes: suppressor of cytokine signaling 1, Flag-tagged, expressed in oligodendrocytes from the PLP/SOCS1 transgene
In the case of B1, the Incidence of tremor in test [4] (172 × PLP/SOCS1 littermates), in test [4] (184/67 × PLP/SOCS1 littermates) and in test [4] (184/110 × PLP/SOCS1 littermates) was 0% throughout. The oligodendrocyte density in test [4] (184/67 system) is 142±5 CC1 (+) cells/mm^2; in test [4] (184/110 system), 141±6 CC1 (+) cells/mm^2. Moreover, the “MHC class I molecule expression (immunostaining)” value in test [4] (MBP/IFN-γ and MBP/IFN-γ×PLP/SOCS1 brains) is listed as “did not express detectable levels”.
